T1: human amylin-3 (a) receptor (human, UniProt P30988 25-474; O60896 24-148)
T1 sequence (looked up) 1: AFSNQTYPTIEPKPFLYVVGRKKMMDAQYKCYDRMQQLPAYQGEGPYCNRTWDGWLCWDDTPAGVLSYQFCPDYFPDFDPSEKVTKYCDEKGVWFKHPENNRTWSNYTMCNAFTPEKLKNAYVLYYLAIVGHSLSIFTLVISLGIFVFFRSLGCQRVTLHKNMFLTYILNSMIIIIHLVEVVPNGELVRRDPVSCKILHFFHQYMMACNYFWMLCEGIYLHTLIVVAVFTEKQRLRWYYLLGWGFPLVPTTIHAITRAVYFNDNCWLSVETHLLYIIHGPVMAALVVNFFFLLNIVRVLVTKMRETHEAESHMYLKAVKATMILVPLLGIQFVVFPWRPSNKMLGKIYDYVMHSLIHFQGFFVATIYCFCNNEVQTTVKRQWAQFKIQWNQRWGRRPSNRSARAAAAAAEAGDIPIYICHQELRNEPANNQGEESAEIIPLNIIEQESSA
T1 sequence (looked up) 2: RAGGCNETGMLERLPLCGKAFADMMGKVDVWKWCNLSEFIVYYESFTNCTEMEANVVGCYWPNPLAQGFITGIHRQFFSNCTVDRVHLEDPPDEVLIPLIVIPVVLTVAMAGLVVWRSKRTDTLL

B1: Compound 0147 (peptide)
peptide: H[Aib]EGTFTSDVSSYLEEQAAREFIEWLVRGK(Butyryl(4-SO2NHCO(CH2)16Tz))ASELSTAALGRLSAELHELATLPRTETGSGSP-NH2
B2: Compound 0039 (peptide)
peptide: HGEGTFTSDVSSYLEEQAARK([AEEA-AEEA-γGlu-C14 diacid])FIEWLVRGK([AEEA-AEEA-γGlu-C14 diacid])GEASELSTAALGRLSAELHELATLPRTETGSGSP-NH2
B3: Compound 0191 (peptide)
peptide: H[Aib]EGTFTSDVSSYLEGQAAREFIAWLVRGRGQEPK([AEEA-AEEA-γGlu-C18 diacid])GQAPASRLSTEALGRLSAELHELATLPRTETGSGSP-NH2
B4: Compound 0180 (peptide)
peptide: H[Aib]EGTFTSDVSSYLEEQAAREFIEWLVRGRK([εLys-AEEA-AEEA-γGlu-Trx-C20 diacid])EAEAEASELSTAALGRLSAELHELATLPRTETGSGSP-NH2
B5: Compound 0145 (peptide)
peptide: H[Aib]EGTFTSDVSSYLEEQAAREFIAWLVRGRGK(Butyryl(4-SO2NHCO(CH2)16Tz))GGGASELSTAALGRLSAELHELATLPRTETGSGSP-NH2
B6: Compound 0151 (peptide)
peptide: H[Aib]EGTFTSDVSSYLEGQAAREFIAWLVRGRK([AEEA-AEEA-γGlu-C18 diacid])GGGGEASELSTAALGRLSAELHELATLPRTETGSGSP-NH2
B7: Compound 0146 (peptide)
peptide: H[Aib]EGTFTSDVSSYLEEQAAREFIEWLVRGK(Butyryl(4-SO2NHCO(CH2)16Tz))GGGASELSTAALGRLSAELHELATLPRTETGSGSP-NH2
B8: Compound 0141 (peptide)
peptide: H[Aib]EGTFTSDVSSYLEEQAAREFIAWLVRGRK([γGlu-C20 diacid])EASELSTAALGRLSAELHELATLPRTETGSGSP-NH2
B9: Compound 0159 (peptide)
peptide: H[Aib]EGTFTSDVSSYLEGQAAK([εLys-AEEA-AEEA-γGlu-C18 diacid])EFIAWLVRGRGGGGGGGGGEASELSTAALGRLSAELHELATLPRTETGSGSP-NH2
B10: Compound 0144 (peptide)
peptide: H[Aib]EGTFTSDVSSYLEEQAAREFIAWLVK([AEEA-AEEA-γGlu-C18 diacid])GRGGGGGEASELSTAALGRLSAELHELATLPRTETGSGSP-NH2
B11: Compound 0156 (peptide)
peptide: H[Aib]EGTFTSDVSSYLEGQAAK([AEEA-AEEA-γGlu-C18 diacid])EFIAWLVRGRGQAPGQEPEASELSTAALGRLSAELHELATLPRTETGSGSP-NH2
B12: Compound 0233 (peptide)
peptide: HWEGTFTSDVSSYLEEQAAREFIEWLVRGK([AEEA-AEEA-γGlu-Decanoyl(10-(4-HOOC-PhO))])GEGGGGGASELSTAALGRLSK([AEEA-AEEA-γGlu-Decanoyl(10-(4-HOOC-PhO))])ELHELATLPRTETGSGSP-NH2
B13: Compound 0132 (peptide)
peptide: H[Aib]EGTFTSDVSSYLEEQAAREFIAWLVRGK([AEEA-AEEA-γGlu-C18 diacid])GGEASELSTAALGRLSAELHELATLPRTETGSGSP-NH2
B14: Compound 0232 (peptide)
peptide: HWEGTFTSDVSSYLEEQAARK([AEEA-AEEA-γGlu-Decanoyl(10-(4-HOOC-PhO))])FIEWLVRGRGEGGGGGASELSTAALGRLSAELHELK([AEEA-AEEA-γGlu-Decanoyl(10-(4-HOOC-PhO))])TLPRTETGSGSP-NH2
B15: Compound 0231 (peptide)
peptide: HWEGTFTSDVSSYLEEQAARK([AEEA-AEEA-γGlu-Decanoyl(10-(4-HOOC-PhO))])FIEWLVRGRGEGGGGGASELSTAALGRLSK([AEEA-AEEA-γGlu-Decanoyl(10-(4-HOOC-PhO))])ELHELATLPRTETGSGSP-NH2
B16: Compound 0157 (peptide)
peptide: H[Aib]EGTFTSDVSSYLEGQAAK([AEEA-AEEA-γGlu-C20 diacid])EFIAWLVRGRGQAPGQEPEASELSTAALGRLSAELHELATLPRTETGSGSP-NH2
B17: Compound 0160 (peptide)
peptide: H[Aib]EGTFTSDVSSYLEEQAARK([γGlu-C18 diacid])FIAWLVRGRGGGGGGGGK([γGlu-C18 diacid])EASELSTAALGRLSAELHELATLPRTETGSGSP-NH2
B18: Compound 0142 (peptide)
peptide: [Desaminohistidyl][Aib]EGTFTSDVSSYLEEQAAREFIAWLVRGRK([γGlu-C20 diacid])EASELSTAALGRLSAELHELATLPRTETGSGSP-NH2
B19: Compound 0202 (peptide)
peptide: H[Aib]EGTFTSDVSSYLEGQAAK([AEEA-AEEA-γGlu-C20 diacid])EFIAWLVRGRGQEPGQAPEASELSTAALGRLSAELHELATLPRTETGSGSP-NH2
B20: Compound 0179 (peptide)
peptide: H[Aib]EGTFTSDVSSYLEEQAAREFIEWLVRGRK([AEEA-AEEA-γGlu-Trx-C20 diacid])EAEAEASELSTAALGRLSAELHELATLPRTETGSGSP-NH2

Starred links: 1 amine or outer side, 2 acyl side, 3 side chain; linkers in the order of their positions; H or OH if unused. Non-standard residues stand in square brackets, D forms with d. Groups on a side chain read outwards from the residue. *: point of attachment. Butyryl(4-SO2NHCO(CH2)16Tz) = O=C(CCCCCCCCCCCCCCCCc1nnn[nH]1)NS(=O)(=O)CCCC(=O)*; Decanoyl(10-(4-HOOC-PhO)) = O=C(O)c1ccc(OCCCCCCCCCC(=O)*)cc1; C20 diacid = O=C(O)CCCCCCCCCCCCCCCCCCC(=O)*; C18 diacid = O=C(O)CCCCCCCCCCCCCCCCC(=O)*; γGlu = O=C(O)[C@H](CCC(=O)[*:2])N[*:1]; C14 diacid = O=C(O)CCCCCCCCCCCCC(=O)*; Desaminohistidyl = O=C(CCc1c[nH]cn1)*; εLys = N[C@@H](CCCCN[*:1])C(=O)[*:2]; Trx = NC[C@H]1CC[C@H](C(=O)O)CC1; AEEA = NCCOCCOCC(=O)O; Aib = CC(C)(N)C(=O)O

The first assay deals with human GLP-1 receptor (human, UniProt P43220 24-463). Description: cell-based or functional assay.
As for B1, the “Human GLP-1R potency [EC50 (pM)]” value is 36.8 pM.

B2: the “Human GLP-1R potency [EC50 (pM)]” value was 34.8 pM.

As to B3, the “Human GLP-1R potency [EC50 (pM)]” value came out at 5.9 pM.

As to B4, the “Human GLP-1R potency [EC50 (pM)]” value was determined as 6.4 pM.

Turning to B5, the “Human GLP-1R potency [EC50 (pM)]” value worked out at 11.9 pM.

As for B6, the “Human GLP-1R potency [EC50 (pM)]” value worked out at 10.4 pM.

In the case of B7, the “Human GLP-1R potency [EC50 (pM)]” value was found to be 25.7 pM.

As for B8, the “Human GLP-1R potency [EC50 (pM)]” value stood at 43.3 pM.

For B9, the “Human GLP-1R potency [EC50 (pM)]” value is 30.3 pM.

For the molecule B10, the “Human GLP-1R potency [EC50 (pM)]” value worked out at 7.1 pM.

B11: the “Human GLP-1R potency [EC50 (pM)]” value is 22.6 pM.

Turning to B12, the “Human GLP-1R potency [EC50 (pM)]” value was found to be 46.4 pM.

On to B13, for which the “Human GLP-1R potency [EC50 (pM)]” value worked out at 3 pM.

For B14, the “Human GLP-1R potency [EC50 (pM)]” value worked out at 6.4 pM.

On to B15, for which the “Human GLP-1R potency [EC50 (pM)]” value was determined as 5.6 pM.

As to B16, the “Human GLP-1R potency [EC50 (pM)]” value came out at 28.7 pM.

As for B17, the “Human GLP-1R potency [EC50 (pM)]” value is 11.9 pM.

Take B18: the “Human GLP-1R potency [EC50 (pM)]” value was determined as 88.2 pM.

Regarding B19, the “Human GLP-1R potency [EC50 (pM)]” value worked out at 10.5 pM.

As to B20, the “Human GLP-1R potency [EC50 (pM)]” value was determined as 8.8 pM.

The target of a further assay is T1, human amylin-3 (a) receptor. Briefly: cell-based or functional assay.
For B1, the “Human AmyR3 potency [EC50 (pM)]” value was found to be 33.7 pM.

On to B2, for which the “Human AmyR3 potency [EC50 (pM)]” value came to 59.5 pM.

For B3, the “Human AmyR3 potency [EC50 (pM)]” value was determined as 54.8 pM.

With B4, the “Human AmyR3 potency [EC50 (pM)]” value turned out to be 37 pM.

As for B5, the “Human AmyR3 potency [EC50 (pM)]” value was 16.5 pM.

On to B6, for which the “Human AmyR3 potency [EC50 (pM)]” value came to 9.5 pM.

With B7, the “Human AmyR3 potency [EC50 (pM)]” value turned out to be 14 pM.

Consider B8, for which the “Human AmyR3 potency [EC50 (pM)]” value was 13.2 pM.

B9: the “Human AmyR3 potency [EC50 (pM)]” value worked out at 19.3 pM.

B10: the “Human AmyR3 potency [EC50 (pM)]” value was 16.8 pM.

For B11, the “Human AmyR3 potency [EC50 (pM)]” value came to 22.6 pM.

Turning to B12, the “Human AmyR3 potency [EC50 (pM)]” value is 182 pM.

On to B13, for which the “Human AmyR3 potency [EC50 (pM)]” value is 34.9 pM.

With B14, the “Human AmyR3 potency [EC50 (pM)]” value came to 74.2 pM.

Turning to B15, the “Human AmyR3 potency [EC50 (pM)]” value amounted to 68 pM.

In the case of B16, the “Human AmyR3 potency [EC50 (pM)]” value came out at 18.4 pM.

With B17, the “Human AmyR3 potency [EC50 (pM)]” value was determined as 27.3 pM.

For B18, the “Human AmyR3 potency [EC50 (pM)]” value was 15.4 pM.

As for B19, the “Human AmyR3 potency [EC50 (pM)]” value amounted to 28.4 pM.

Regarding B20, the “Human AmyR3 potency [EC50 (pM)]” value is 35.9 pM.

(Values after patent publication US20260132182A1 (published 2026).)
